Target: nesprin-2-Giant, Q6ZWQ0-1
Experiment: Duolink PLA (proximity ligation assay) in cells
Settings: chain shown with the change; Bax/Bak DKO MEFs, transient transfection, in the presence of Q-VD-OPH; anti-Bax (6A7) Ab and anti-nesprin-2G Ab; n = 3; parent: est. 5.1; read off a plot; scale: fold of normalized Duolink dots per transfected cell relative to GFP

- response: 8.8
B1: GFP-Bax, Q07812 63-65A (protein)
chain: MDGSGEQPRGGGPTSSEQIMKTGALLLQGFIQDRAGRMGGEAPELALDPVPQDASTKKLSECAAAIGDELDSNMELQRMIAAVDTDSPREVFFRVAADMFSDGNFNWGRVVALFYFASKLVLKALCTKVPELIRTIMGWTLDFLRERLLGWIQDQGGWDGLLSYFGTPTWQTVTIFVAGVLTASLTIWKKMG

From paper PMC7501853
